From article PMC4201288

Target: T1, PaFAN1 (Pseudomonas aeruginosa, UniProt Q9I2N0 1-559)
T1 sequence: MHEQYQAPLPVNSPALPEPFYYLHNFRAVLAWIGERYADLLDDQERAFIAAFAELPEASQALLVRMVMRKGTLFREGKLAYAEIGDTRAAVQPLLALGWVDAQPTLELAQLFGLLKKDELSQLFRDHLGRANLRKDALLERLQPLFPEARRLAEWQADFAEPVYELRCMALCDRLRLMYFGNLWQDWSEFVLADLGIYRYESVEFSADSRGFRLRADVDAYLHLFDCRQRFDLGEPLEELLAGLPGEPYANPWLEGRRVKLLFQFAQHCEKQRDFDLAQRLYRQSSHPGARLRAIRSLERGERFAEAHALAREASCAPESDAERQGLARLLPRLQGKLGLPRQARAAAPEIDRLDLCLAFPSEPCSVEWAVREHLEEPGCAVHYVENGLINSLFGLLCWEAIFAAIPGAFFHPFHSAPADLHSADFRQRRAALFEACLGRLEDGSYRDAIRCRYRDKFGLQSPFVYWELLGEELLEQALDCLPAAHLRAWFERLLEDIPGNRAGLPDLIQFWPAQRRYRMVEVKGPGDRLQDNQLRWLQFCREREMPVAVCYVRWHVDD
Test: crystal structure

B1: 5' flap DNA, 22-base template, 4-nt 5' flap (crystal I) (structured_DNA)
DNA 1: GAATGTGTGTCTCAATCCCAAC
DNA 2: GTTGGGATTG
DNA 3: AACCAGACACACATTC
  binding result: binds
